Broadly, the Kd is the concentration at which binding is half-saturated. A lower Kd goes with higher affinity.

Our source for the ELISA fold over background (fold over background) and Kd values is patent US20210395344A1.

The target of test [1] is COVID S1 RBD Fc fusion (Antigen 1) (SARS-CoV-2), P0DTC2. Briefly: phage ELISA. Particulars: remark: other sources report otherwise.
Test [2] concerns the target SARS-CoV-2 S protein trimer (SARS-CoV-2), P0DTC2. Briefly: column DB/S-T (format not explained). To be noted: remark: other sources report otherwise.

B1: 1-5 (antibody, V domains shown)
VH: EVQLLESGGGLVQPGGSLRLSCAASGFTFSSQAMSWVRQAPGKGLEWVSAISGSGGGTYYADSVKGRFTISRDNSKNTLYLQMNSLRAEDTAVYYCAKDRRFGEFDPWGQGTLVTVSS
VL: QSALTQPASVSGSPGQSITISCTGTSSGVGSYNLVSWYQQHPGKAPKLMIYEASKRPSGVSNRFSGSKSGNTASLTISGLQAEDEADYYCCSYAGSYTFAVFGGGTKLTVL
B1 gave an ELISA fold over background (fold over background) in test [1] of 1.6. The Kd in test [2] was 1160 nM.
